Our source for the Km of the phosphorylation of PiRhoGDI1 by PiCDPK1 (Michaelis-Menten conditions) and Vmax of the phosphorylation of PiRhoGDI1 by PiCDPK1 (Michaelis-Menten conditions) values is PMC8838988.

This assay addresses PiCDPK1, full-length 6X N-terminal His-fusion protein (Petunia inflata).

PiCDPK1, full-length 6X N-terminal His-fusion protein (Petunia inflata), sequence (main, as listed by the source): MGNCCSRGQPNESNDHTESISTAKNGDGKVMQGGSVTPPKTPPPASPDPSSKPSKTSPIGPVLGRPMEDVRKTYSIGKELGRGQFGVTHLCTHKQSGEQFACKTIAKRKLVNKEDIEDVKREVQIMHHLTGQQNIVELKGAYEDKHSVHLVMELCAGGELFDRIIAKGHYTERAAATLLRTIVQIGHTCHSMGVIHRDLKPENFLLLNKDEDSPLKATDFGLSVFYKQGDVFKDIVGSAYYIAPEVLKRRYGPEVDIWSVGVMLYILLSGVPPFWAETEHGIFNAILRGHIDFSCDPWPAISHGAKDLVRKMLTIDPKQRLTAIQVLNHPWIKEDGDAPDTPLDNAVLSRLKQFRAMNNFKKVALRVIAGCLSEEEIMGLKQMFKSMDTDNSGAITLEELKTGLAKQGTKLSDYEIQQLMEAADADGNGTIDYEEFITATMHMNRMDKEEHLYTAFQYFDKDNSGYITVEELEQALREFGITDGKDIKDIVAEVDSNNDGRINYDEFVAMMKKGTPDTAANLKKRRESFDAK

For “PiRhoGDI1, full-length 6X N-terminal His-fusion protein (natural protein)”, the Km of the phosphorylation of PiRhoGDI1 by PiCDPK1 (Michaelis-Menten conditions) was 2.2 µM and the Vmax of the phosphorylation of PiRhoGDI1 by PiCDPK1 (Michaelis-Menten conditions) turned out to be 1920 pmol/min/mg.
